Laboratory results taken from IntAct's records for PubMed 18303947.

B1: NMDA receptor synaptonuclear signaling and neuronal migration factor (Mus musculus), Q99NF2-1 (parent)
chain: MGAAASRRRALRSEAMSSVAAKVRAARAFGEYLSQSHPENRNGADHLLADAYSGHDGSPEMQPAPQNKRRLSLVSNGRYEGSISDEAVSGKPAIEGPQPHVYTISREPALLPGSEAEAIELAVVKGRRQRERHPHHHSQPLRASPGSSREDISRPCQSWAGSRQGSKECPGCAQLVPGPSSRAFGLEQPPLPEAPGRHKKLERMYSVDGVSDDVPIRTWFPKENLFSFQTATTTMQAISVFRGYAERKRRKRENDSASVIQRNFRKHLRMVGSRRVKAQTFAERRERSFSRSWSDPTPMKADTSHDSRDSSDLQSSHCTLDEACEDLDWDTEKGLEAMACNTEGFLPPKVMLISSKVPKAEYIPTIIRRDDPSIIPILYDHEHATFEDILEEIEKKLNIYHKGAKIWKMLIFCQGGPGHLYLLKNKVATFAKVEKEEDMIHFWKRLSRLMSKVNPEPNVIHIMGCYILGNPNGEKLFQNLRTLMTPYKVTFESPLELSAQGKQMIETYFDFRLYRLWKSRQHSKLLDFDDVL

Variants of: B1
Conditions: with Cabp1, O88751-1
Chain of Cabp1, O88751-1 (O88751 whole entry): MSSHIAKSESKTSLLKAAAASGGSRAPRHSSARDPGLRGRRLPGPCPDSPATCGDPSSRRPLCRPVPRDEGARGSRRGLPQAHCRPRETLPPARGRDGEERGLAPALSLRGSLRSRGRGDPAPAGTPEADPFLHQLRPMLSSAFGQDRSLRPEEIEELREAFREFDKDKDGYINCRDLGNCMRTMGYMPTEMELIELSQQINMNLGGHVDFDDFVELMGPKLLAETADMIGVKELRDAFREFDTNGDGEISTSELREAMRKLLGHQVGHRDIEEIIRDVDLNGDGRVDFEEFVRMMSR

| Variant | effect of a mutation on the interaction |
| --- | --- |
| F241E | disrupting interaction |
